Reference: patent US20170131281A1

Legend:
[1] = target: HL60 cells surface antigens; assay: flow cytometry on HL60 cells, sandwich with anti-c-myc-FITC
[2] = target: KG1 cells surface antigen (6B protein binding surface antigen, unidentified); assay: flow cytometry on KG1 cells, sandwich with anti-c-myc-FITC

B1: 6B antibody in an scFv format (Clone 6B) (scFv, not shown: small tags and cut ends)
scFv: EVQLLESGGGLVQPGGSLRLSCAASGFTFSSYGMSWVRQAPGKGLEWVSTIRTAGRATEYADSVKGRFTISRDNSKNTLYLQMNSLRAEDTAVYYCAKSPQTFDYWGQGTLVTVSSGGGGSGGGGSGGGGSTDIQMTQSPSSLSASVGDRVTITCRASQSISSYLNWYQQKPGKAPKLLIYRASRLQSGVPSRFSGSGSGTDFTLTISSLQPEDFATYYCQQRLTIPITFGQGTKVEIKRAAA
[1]
  FITC+: % Vis: 4.5%
  FITC+: GeoMean: 9.8
  FITC+: mean: 10.7
  FITC+: median: 8.9
[2]
  FITC+: % Vis: 100%
  FITC+: GeoMean: 28.1
  FITC+: mean: 29.4
  FITC+: median: 28.4
